T1: FcγRIIb extracellular domain with C-terminal His tag (human, UniProt P31994 43-217)
T1 construct: extracellular domain; also called 2b; FcgRIIb; not shown: His tag at the C terminus
T1 sequence (looked up): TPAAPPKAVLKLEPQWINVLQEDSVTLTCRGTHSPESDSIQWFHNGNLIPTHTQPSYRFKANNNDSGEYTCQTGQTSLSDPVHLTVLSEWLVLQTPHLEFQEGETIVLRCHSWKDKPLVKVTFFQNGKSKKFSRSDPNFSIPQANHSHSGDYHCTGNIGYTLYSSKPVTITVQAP

T2: FcγRIIb (human, UniProt P31994 43-217)
T2 construct: extracellular domain; also called FcgRIIb; 2b; not shown: His tag at the C terminus
T2 sequence (looked up): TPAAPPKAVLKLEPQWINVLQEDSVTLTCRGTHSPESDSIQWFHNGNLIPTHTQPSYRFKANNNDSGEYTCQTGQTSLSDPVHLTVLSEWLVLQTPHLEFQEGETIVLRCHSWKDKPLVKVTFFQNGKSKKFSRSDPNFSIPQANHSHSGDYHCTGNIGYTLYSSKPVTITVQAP


Legend:
[1] = molecular target: T3, FcγRIIIa extracellular domain with C-terminal His tag (human, UniProt P08637 17-208); test: SPR (Biacore), relative binding, GpH7-A5/GpH7-B3/GpL16-k0 = 100
T3 construct: extracellular domain; also called 3a; FcgRIIIa; not shown: His tag at the C terminus

[2] = molecular target: T1, FcγRIIb extracellular domain with …; test: as above
FcγRIa = molecular target: T4, FcγRIa (human, UniProt P12314 16-292); test: SPR (Biacore), captured antibody, soluble FcγR; relative to GpH7-A5/GpH7-B3/GpL16-k0
T4 construct: extracellular domain; also called FcgRI; 1a; not shown: His tag at the C terminus

FcγRIIb = molecular target: T2, FcγRIIb; test: as above

T3 sequence (P08637 17-208): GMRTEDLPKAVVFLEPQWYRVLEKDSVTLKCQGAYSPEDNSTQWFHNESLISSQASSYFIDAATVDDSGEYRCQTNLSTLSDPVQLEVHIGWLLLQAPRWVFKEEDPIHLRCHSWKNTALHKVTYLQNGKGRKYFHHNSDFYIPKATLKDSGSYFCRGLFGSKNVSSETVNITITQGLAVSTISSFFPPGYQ
T4 sequence (P12314 16-292): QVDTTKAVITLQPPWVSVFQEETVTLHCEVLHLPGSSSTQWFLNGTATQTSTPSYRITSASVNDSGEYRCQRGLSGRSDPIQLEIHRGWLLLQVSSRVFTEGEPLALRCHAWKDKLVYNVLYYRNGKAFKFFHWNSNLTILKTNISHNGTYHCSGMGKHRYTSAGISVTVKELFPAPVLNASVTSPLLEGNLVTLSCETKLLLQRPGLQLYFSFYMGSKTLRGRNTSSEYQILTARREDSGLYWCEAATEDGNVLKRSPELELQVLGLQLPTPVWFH

Row | Binder | He/Con_3a [1] | He/Con_2b [2] | He/Con_1a (FcγRIa) | He/Con_2b (FcγRIIb)
1 | GpH7-A5/GpH7-B3 variant Q295_13S/GpL16-k0 (antibody, human IgG1, kappa, He Ab: mutation only in the GpH7-B3 H chain; EU numbering; also called He Ab) heavy 1: not shown heavy 2: not shown light: DIVMTQSPLSLPVTPGEPASISCQASESLVHSNRNTYLHWYLQKPGQSPQLLIYKVSNRFSGVPDRFSGSGSGTDFTLKISRVEAEDVGVYYCSQNTHVPPTFGQGTKVEIERTVAAPSVFIFPPSDEQLKSGTASVVCLLNNFYPREAKVQWKVDNALQSGNSQESVTEQDSKDSTYSLSSTLTLSKADYEKHKVYACEVTHQGLSSPVTKSFNRGEC |  |  | 102 relative, HeCon Ab = 100 | 56.9 relative, HeCon Ab = 100
2 | GpH7-A5/GpH7-B3 variant Q295_16H/GpL16-k0 (antibody, human IgG1, kappa, He Ab: mutation only in the GpH7-B3 H chain; EU numbering; also called He Ab) heavy 1: not shown heavy 2: not shown light: DIVMTQSPLSLPVTPGEPASISCQASESLVHSNRNTYLHWYLQKPGQSPQLLIYKVSNRFSGVPDRFSGSGSGTDFTLKISRVEAEDVGVYYCSQNTHVPPTFGQGTKVEIERTVAAPSVFIFPPSDEQLKSGTASVVCLLNNFYPREAKVQWKVDNALQSGNSQESVTEQDSKDSTYSLSSTLTLSKADYEKHKVYACEVTHQGLSSPVTKSFNRGEC |  |  | 102 relative, HeCon Ab = 100 | 62.7 relative, HeCon Ab = 100
3 | GpH7-A5/GpH7-B3 variant Q295_15Y/GpL16-k0 (antibody, human IgG1, kappa, He Ab: mutation only in the GpH7-B3 H chain; EU numbering; also called He Ab) heavy 1: not shown heavy 2: not shown light: DIVMTQSPLSLPVTPGEPASISCQASESLVHSNRNTYLHWYLQKPGQSPQLLIYKVSNRFSGVPDRFSGSGSGTDFTLKISRVEAEDVGVYYCSQNTHVPPTFGQGTKVEIERTVAAPSVFIFPPSDEQLKSGTASVVCLLNNFYPREAKVQWKVDNALQSGNSQESVTEQDSKDSTYSLSSTLTLSKADYEKHKVYACEVTHQGLSSPVTKSFNRGEC |  |  | 102 relative, HeCon Ab = 100 | 65.4 relative, HeCon Ab = 100
4 | GpH7-A5/GpH7-B3 variant Q295_12R/GpL16-k0 (antibody, human IgG1, kappa, He Ab: mutation only in the GpH7-B3 H chain; EU numbering; also called He Ab) heavy 1: not shown heavy 2: not shown light: DIVMTQSPLSLPVTPGEPASISCQASESLVHSNRNTYLHWYLQKPGQSPQLLIYKVSNRFSGVPDRFSGSGSGTDFTLKISRVEAEDVGVYYCSQNTHVPPTFGQGTKVEIERTVAAPSVFIFPPSDEQLKSGTASVVCLLNNFYPREAKVQWKVDNALQSGNSQESVTEQDSKDSTYSLSSTLTLSKADYEKHKVYACEVTHQGLSSPVTKSFNRGEC |  |  | 100 relative, HeCon Ab = 100 | 65.2 relative, HeCon Ab = 100

Next, values leading:

Row | He/Con_3a [1] | He/Con_2b [2] | He/Con_1a (FcγRIa) | He/Con_2b (FcγRIIb) | Binder
5 | 39.4 % of control | 82.3 % of control |  |  | GpH7-A5/GpH7-B3 variant V266_14T/GpL16-k0 (antibody, human IgG1, kappa, He Ab: mutation in the GpH7-B3 H chain only; also called He Ab) heavy 1: not shown heavy 2: not shown light: DIVMTQSPLSLPVTPGEPASISCQASESLVHSNRNTYLHWYLQKPGQSPQLLIYKVSNRFSGVPDRFSGSGSGTDFTLKISRVEAEDVGVYYCSQNTHVPPTFGQGTKVEIERTVAAPSVFIFPPSDEQLKSGTASVVCLLNNFYPREAKVQWKVDNALQSGNSQESVTEQDSKDSTYSLSSTLTLSKADYEKHKVYACEVTHQGLSSPVTKSFNRGEC
6 |  |  | 104 relative, HeCon Ab = 100 | 80.1 relative, HeCon Ab = 100 | GpH7-A5/GpH7-B3 variant S298_01G/GpL16-k0 (antibody, human IgG1, kappa, He Ab: mutation only in the GpH7-B3 H chain; EU numbering; also called He Ab) heavy 1: not shown heavy 2: not shown light: DIVMTQSPLSLPVTPGEPASISCQASESLVHSNRNTYLHWYLQKPGQSPQLLIYKVSNRFSGVPDRFSGSGSGTDFTLKISRVEAEDVGVYYCSQNTHVPPTFGQGTKVEIERTVAAPSVFIFPPSDEQLKSGTASVVCLLNNFYPREAKVQWKVDNALQSGNSQESVTEQDSKDSTYSLSSTLTLSKADYEKHKVYACEVTHQGLSSPVTKSFNRGEC
7 |  |  | 102 relative, HeCon Ab = 100 | 64.9 relative, HeCon Ab = 100 | GpH7-A5/GpH7-B3 variant Q295_18N/GpL16-k0 (antibody, human IgG1, kappa, He Ab: mutation only in the GpH7-B3 H chain; EU numbering; also called He Ab) heavy 1: not shown heavy 2: not shown light: DIVMTQSPLSLPVTPGEPASISCQASESLVHSNRNTYLHWYLQKPGQSPQLLIYKVSNRFSGVPDRFSGSGSGTDFTLKISRVEAEDVGVYYCSQNTHVPPTFGQGTKVEIERTVAAPSVFIFPPSDEQLKSGTASVVCLLNNFYPREAKVQWKVDNALQSGNSQESVTEQDSKDSTYSLSSTLTLSKADYEKHKVYACEVTHQGLSSPVTKSFNRGEC
8 | 14.5 % of control | 49.4 % of control |  |  | GpH7-A5/GpH7-B3 variant V266_15Y/GpL16-k0 (antibody, human IgG1, kappa, He Ab: mutation in the GpH7-B3 H chain only; also called He Ab) heavy 1: not shown heavy 2: not shown light: DIVMTQSPLSLPVTPGEPASISCQASESLVHSNRNTYLHWYLQKPGQSPQLLIYKVSNRFSGVPDRFSGSGSGTDFTLKISRVEAEDVGVYYCSQNTHVPPTFGQGTKVEIERTVAAPSVFIFPPSDEQLKSGTASVVCLLNNFYPREAKVQWKVDNALQSGNSQESVTEQDSKDSTYSLSSTLTLSKADYEKHKVYACEVTHQGLSSPVTKSFNRGEC
9 |  |  | 109 relative, HeCon Ab = 100 | 65.4 relative, HeCon Ab = 100 | GpH7-A5/GpH7-B3 variant S298_04F/GpL16-k0 (antibody, human IgG1, kappa, He Ab: mutation only in the GpH7-B3 H chain; EU numbering; also called He Ab) heavy 1: not shown heavy 2: not shown light: DIVMTQSPLSLPVTPGEPASISCQASESLVHSNRNTYLHWYLQKPGQSPQLLIYKVSNRFSGVPDRFSGSGSGTDFTLKISRVEAEDVGVYYCSQNTHVPPTFGQGTKVEIERTVAAPSVFIFPPSDEQLKSGTASVVCLLNNFYPREAKVQWKVDNALQSGNSQESVTEQDSKDSTYSLSSTLTLSKADYEKHKVYACEVTHQGLSSPVTKSFNRGEC
10 | 30.4 % of control | 69.7 % of control |  |  | GpH7-A5/GpH7-B3 variant V266_18N/GpL16-k0 (antibody, human IgG1, kappa, He Ab: mutation in the GpH7-B3 H chain only; also called He Ab) heavy 1: not shown heavy 2: not shown light: DIVMTQSPLSLPVTPGEPASISCQASESLVHSNRNTYLHWYLQKPGQSPQLLIYKVSNRFSGVPDRFSGSGSGTDFTLKISRVEAEDVGVYYCSQNTHVPPTFGQGTKVEIERTVAAPSVFIFPPSDEQLKSGTASVVCLLNNFYPREAKVQWKVDNALQSGNSQESVTEQDSKDSTYSLSSTLTLSKADYEKHKVYACEVTHQGLSSPVTKSFNRGEC
